These results are taken from patent publication US20240122985A1, “ANTIBODIES, COMBINATIONS COMPRISING ANTIBODIES, BIOMARKERS, USES & METHODS” (KYMAB LIMITED, priority 2016, published 2024).

Several values for one entry are separate records, joined by “and”; a condition that tells them apart may be missing. Equal entries are not always repeated.

The test system of the series is Rhesus Macaque Graft versus Host Disease (GvHD) model. The source says: The effectiveness of antibody 2D10 IgG4PE as a monotherapy prophylactic for the prevention of GvHD was examined in a Rhesus Macaque model of haploidentical hematopoietic stem cell transplantation (HSCT).
All transplants were between half-sibling pairs that are mismatched at one MHC haplotype (“haploidentical-HCTs”). Recipient animals had irradiation based pre-myeloablative pre-transplant conditioning using a linear accelerator. Dose rate: 7cGy/min. Dose 1020 cGy given in 4 fractions. The leukapheresis donor animal underwent GCSF mobilisation and underwent leukapheresis using a Spectra Optia apheresis machine.
2D10 IgG4PE was dosed at 10 mg/kg i.v. according to a planned dosing schedule to take place on Day −2, Day+5, Day+12, Day+19, Day+26, Day+33, Day+40, Day+47 post-transplant.
Samples were taken during the course of the study to monitor donor chimerism (Table 4) and white blood cell counts. The primary end point was based on survival, with a survival to 15 days deemed to be a sign of successful prophylactic therapy (and compared to the documented survival of 6-8 days with no prophylaxis; Miller et al. 2010, supra). Though full pathology and histology with GvHD grading scores, markers of T-cell proliferation and activation (such as Ki-67 and granzyme B) and gene array analysis are planned, they were not available for inclusion at the time of drafting.
Scoring of clinical symptoms was based on observational assessments and clinical chemistry, classified according to the criteria set out in Table 5.
A further rhesus macaque GvHD study was conducted to determine the effect of combined post-HSCT prophylaxis with 2D10 IgG4PE and rapamycin. The study was performed as described in Example 7, with dosing as follows: 2D10 IgG4PE was administered i.v. at 10 mg/kg on Day −2, Day +5, Day+12, Day+19, Day+26, Day+33, Day+40, Day+47 and Day+56 post-transplant. Rapamycin was administered at a loading dose of 0.1 mg/kg i.m. on Day −14, followed by daily i.m. maintenance doses of 0.025 mg/kg until the scheduled termination of the study at Day+100. Rapamycin dosing was adjusted to maintain serum trough levels within the range 5-15 ng/mL.
This was a cohort study in NHP designed to determine the clinical, immunologic and molecular outcomes of OX40L blockade during allogeneic HCT. Two cohorts of transplant recipients were studied: (1) Allogeneic transplants using the OX40L-blocking human IgG4-PE antibody 1D05 (described as ‘KY1005’ in this Example 11) as monotherapy for GVHD prophylaxis (abbreviated as ‘KY1005’; n=4). KY1005 was given at a dose of 10 mg/kg starting on Days −2 and then once weekly until discontinuation on Days 54 (FIG. 8E). […] (2) Allogeneic transplants using KY1005 in combination with Sirolimus (Rapamycin) ([…]) for GVHD prophylaxis (abbreviated as ‘KY1005/Siro’; n=5). KY1005 was given at a dose of 10 mg/kg starting on Days −2 and then once weekly until discontinuation on Days 54 (FIG. 8P). […] These two OX40L-blockade groups were compared to the following cohorts, aspects of which have been described previously (Furlan et al., 2015; Furlan et al., 2016; Miller et al., 2010) (1) Autologous transplants (abbreviated as ‘Auto’, n=6 for clinical and flow cytometric data and n=4 for transcriptomic analysis) (2); Allogeneic transplants with no GVHD prophylaxis (abbreviated as‘No Rx’, n=11 for clinical and flow cytometric data and n=4 for transcriptomic analysis). (3) Allogeneic transplants using Sirolimus monotherapy for GVHD prophylaxis (LC laboratories, abbreviated as ‘Siro’, n=11 for flow cytometric analysis, n=4 for transcriptomic analysis).

Setting [1] is: Rhesus HSCT, 2D10 IgG4PE 10 mg/kg i.v. weekly from Day −2, one line per animal, brackets = experimental failure.

Turning to “KY1005: antibody used for GVHD immunoprophylaxis in NHP, measured by antigen (OX40L) capture assay; not tied to 02D10 in this part”, for the setting “Example 11 (FIG. 7C)”, the MST stood at 19.5 days. For the same molecule, the GVHD-free survival (Example 11, NHP (FIG. 7C)) stood at 19.5 days. For the same molecule, the “Survival” value (Table 8, per animal, Seattle) was 16 day (2×) and 26 day and 23 day.

B1: 2D10 IgG4PE: fully human anti-human OX40L monoclonal antibody, human IgG4-PE; VH Seq ID No:34, VL Seq ID No:48; 2D10-1 to -4 are stable pools (antibody, V domains shown)
VH: EVQLVESGGGLVQPGGSLRLSCAASGFTFSNYAMNWVRQAPGKGLEWVSTISGSGGATRYADSVKGRFTISRDNSRNTVYLQMNSLRVEDTAVFYCTKDRLIMATVRGPYYYGMDVWGQGTTVTVSS
VL: DIQMTQSPSSLSASVGDRVTITCRASQSISSYLNWYQQKPGKAPNLLIYAASSLQSGVPSRFSGSGSETDFTLTISSLQPEDFATYYCQQSHSVSFTFGPGTKVDIK
modifications: human IgG4-PE constant regions; 02D10 - VH Amino Acid Sequence; 02D10 - VL Amino Acid Sequence
As to B1, the “median survival time, MST” value (Example 9, post-HSCT prophylaxis, Rhesus macaque (FIG. 7)) was 19 days. Further, under setting [1], the “Survival Duration” value is 22 days and 16 days (2×) and 26 days; the “Survival Duration (days)” value is “(24) days”. Moreover, the “survival of animals after allogeneic HCT” value (Rhesus macaque) is on record as “prolonged survival”. Besides, the “Gross necropsy, visceral GvHD” value (animal #4) is on record as “no overt visceral GvHD”. Moreover, the “adverse dosing side effects” value (rhesus monkey, in vivo, iv, 10 mg/kg) was “No serious adverse dosing side effects”.
